Results on 58 variants are retold here after the supplement of paper PMC6757056.

± gives the standard deviation of the averaged measurements.

B1: library; a variant is named by its letters at N, in order (parent)
chain: GCUGUCACCGAGAAACUGUGAAGUAUAUCUUAAACCUGGGCACUUAAAAGAUAUAUGGAGUUAGUAGUGCAACCUGCUCGGUCUGAUGAGUCCNNNNNNGGACGAAACAGC

The variants in series [1] derive from B1. The series can be described thus: normalized RNA/DNA level without ligand (relative to sTRSVctl = 100) (log10 (% of sTRSVctl)); HEK293T; ligand: cyclic di-GMP (c-di-GMP-II aptamer); higher = less ribozyme self-cleavage, higher mRNA level. Particulars: reporter: mCherry (pCS4076), ligand present: no. In a few lines: (§1)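 Library plasmids encoding reporter-linked ribozyme switches (mCherry, or eGFP for some folinic acid experiments) were transfected into HEK293T at 4 µg per 6-well well. Ligand, when used, was added 1 h before transfection. Total RNA was extracted with EDTA 72 h later, then reverse-transcribed, amplified, barcoded and sequenced. RNA level was RNA reads over DNA reads, divided by a spiked-in non-cleaving control (or the top 25 sequences), ×100, log10; only sequences with ≥100 DNA reads were kept.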

In series [2] the parent is B1. As to the kind of experiment: normalized RNA/DNA level with ligand (relative to sTRSVctl = 100) (log10 (% of sTRSVctl)); HEK293T; ligand: cyclic di-GMP (c-di-GMP-II aptamer); ligand concentration (+) RNA-Seq: 1 mM; higher = less ribozyme self-cleavage, higher mRNA level. Particulars: reporter: mCherry (pCS4076), ligand present: yes. In a few lines: as §1

With UAGCUG, in series [1], the “normalized RNA/DNA level without ligand (log10)” value came out at 1.74 ± 0.038. Besides, the “normalized RNA/DNA level with ligand (log10)” value in series [2] turned out to be 1.86 ± 0.084.
On to CAGAGG, for which the “normalized RNA/DNA level without ligand (log10)” value in series [1] was 1.64 ± 0.069. In addition, in series [2], the “normalized RNA/DNA level with ligand (log10)” value worked out at 1.8 ± 0.046.
In the case of CAGAGA, in series [1], the “normalized RNA/DNA level without ligand (log10)” value was determined as 1.41 ± 0.064. The “normalized RNA/DNA level with ligand (log10)” value in series [2] came out at 1.64 ± 0.13.
On the same counts, the results for CAGAGC are 1.67 ± 0.036 and 1.83 ± 0.09.
Turning to CAGAGU, the “normalized RNA/DNA level without ligand (log10)” value in series [1] amounted to 1.652 ± 0.0071. Besides, the “normalized RNA/DNA level with ligand (log10)” value in series [2] worked out at 1.86 ± 0.11.
On the same counts, the results for GAGGUG are 1.74 ± 0.049 and 1.84 ± 0.087.
For the variant GAGGUU, the “normalized RNA/DNA level without ligand (log10)” value in series [1] was 1.73 ± 0.072. Moreover, the “normalized RNA/DNA level with ligand (log10)” value in series [2] was 1.85 ± 0.083.
Consider GAGGUC, for which the “normalized RNA/DNA level without ligand (log10)” value in series [1] was 1.68 ± 0.042. For the same variant, the “normalized RNA/DNA level with ligand (log10)” value in series [2] came out at 1.82 ± 0.11.
Turning to GAGGUA, the “normalized RNA/DNA level without ligand (log10)” value in series [1] was found to be 1.698 ± 0.0042. In series [2], the “normalized RNA/DNA level with ligand (log10)” value was 1.77 ± 0.1.
Turning to GAGAAU, the “normalized RNA/DNA level without ligand (log10)” value in series [1] was 1.663 ± 0.011. Further, the “normalized RNA/DNA level with ligand (log10)” value in series [2] came to 1.76 ± 0.098.
On the same counts, the results for GAGAAC are 1.65 ± 0.031 and 1.8 ± 0.09.
Consider GAGAAA, for which, in series [1], the “normalized RNA/DNA level without ligand (log10)” value was 1.6011 ± 0.00083. For the same variant, in series [2], the “normalized RNA/DNA level with ligand (log10)” value stood at 1.72 ± 0.1.
As to CAGGUA, the “normalized RNA/DNA level without ligand (log10)” value in series [1] is 1.57 ± 0.081. Further, in series [2], the “normalized RNA/DNA level with ligand (log10)” value amounted to 1.67 ± 0.11.
Consider CAGGUC, for which, in series [1], the “normalized RNA/DNA level without ligand (log10)” value turned out to be 1.76 ± 0.021. For the same variant, the “normalized RNA/DNA level with ligand (log10)” value in series [2] was found to be 1.84 ± 0.094.
Take CAGGUG: the “normalized RNA/DNA level without ligand (log10)” value in series [1] was 1.62 ± 0.056. Moreover, the “normalized RNA/DNA level with ligand (log10)” value in series [2] turned out to be 1.76 ± 0.084.
CAGGUU: the “normalized RNA/DNA level without ligand (log10)” value in series [1] was determined as 1.798 ± 0.0047. In addition, the “normalized RNA/DNA level with ligand (log10)” value in series [2] was 1.88 ± 0.053.
Regarding GACGUU, in series [1], the “normalized RNA/DNA level without ligand (log10)” value turned out to be 1.619 ± 0.0079. For the same variant, the “normalized RNA/DNA level with ligand (log10)” value in series [2] amounted to 1.81 ± 0.12.
With GACGUG, the “normalized RNA/DNA level without ligand (log10)” value in series [1] came to 1.71 ± 0.052. The “normalized RNA/DNA level with ligand (log10)” value in series [2] was 1.83 ± 0.11.
Regarding GACGUC, the “normalized RNA/DNA level without ligand (log10)” value in series [1] was 1.671 ± 0.014. Also, in series [2], the “normalized RNA/DNA level with ligand (log10)” value came out at 1.87 ± 0.1.
The corresponding values for GACGUA are 1.665 ± 0.013 and 1.8 ± 0.085.
In the case of UAGAUA, the “normalized RNA/DNA level without ligand (log10)” value in series [1] turned out to be 1.614 ± 0.012. Further, the “normalized RNA/DNA level with ligand (log10)” value in series [2] was determined as 1.78 ± 0.11.
On the same counts, the results for UAGAUU are 1.6 ± 0.028 and 1.79 ± 0.067.
On the same counts, the results for UAGAUC are 1.595 ± 0.014 and 1.82 ± 0.056.
Consider CACUCA, for which the “normalized RNA/DNA level without ligand (log10)” value in series [1] was 1.39 ± 0.1. Moreover, in series [2], the “normalized RNA/DNA level with ligand (log10)” value was determined as 1.62 ± 0.093.
For CACUCU, the “normalized RNA/DNA level without ligand (log10)” value in series [1] is 1.6 ± 0.019. The “normalized RNA/DNA level with ligand (log10)” value in series [2] turned out to be 1.77 ± 0.12.
In the case of CACUCC, the “normalized RNA/DNA level without ligand (log10)” value in series [1] worked out at 1.74 ± 0.077. In addition, the “normalized RNA/DNA level with ligand (log10)” value in series [2] was 1.84 ± 0.091.
CACUCG: in series [1], the “normalized RNA/DNA level without ligand (log10)” value was found to be 1.82 ± 0.042. In addition, the “normalized RNA/DNA level with ligand (log10)” value in series [2] was found to be 1.87 ± 0.11.
As to CACUUC, in series [1], the “normalized RNA/DNA level without ligand (log10)” value came to 1.71 ± 0.022. Besides, the “normalized RNA/DNA level with ligand (log10)” value in series [2] stood at 1.83 ± 0.16.
Regarding CACUUU, in series [1], the “normalized RNA/DNA level without ligand (log10)” value was 1.51 ± 0.057. The “normalized RNA/DNA level with ligand (log10)” value in series [2] was 1.7 ± 0.17.
As for GAGGGC, the “normalized RNA/DNA level without ligand (log10)” value in series [1] worked out at 1.66 ± 0.057. In series [2], the “normalized RNA/DNA level with ligand (log10)” value came to 1.82 ± 0.077.
For GAGGGA, the “normalized RNA/DNA level without ligand (log10)” value in series [1] worked out at 1.65 ± 0.027. The “normalized RNA/DNA level with ligand (log10)” value in series [2] worked out at 1.74 ± 0.083.
On to GAGGGG, for which the “normalized RNA/DNA level without ligand (log10)” value in series [1] was 1.77 ± 0.056. Further, the “normalized RNA/DNA level with ligand (log10)” value in series [2] was 1.86 ± 0.1.
Take GAGGGU: the “normalized RNA/DNA level without ligand (log10)” value in series [1] was 1.71 ± 0.024. Moreover, in series [2], the “normalized RNA/DNA level with ligand (log10)” value was 1.75 ± 0.14.
Consider GACGGC, for which, in series [1], the “normalized RNA/DNA level without ligand (log10)” value turned out to be 1.627 ± 0.0064. Moreover, the “normalized RNA/DNA level with ligand (log10)” value in series [2] is 1.72 ± 0.088.
Take GACGGG: the “normalized RNA/DNA level without ligand (log10)” value in series [1] is 1.76 ± 0.027. Moreover, the “normalized RNA/DNA level with ligand (log10)” value in series [2] was 1.85 ± 0.062.
As for GACGGU, in series [1], the “normalized RNA/DNA level without ligand (log10)” value came to 1.633 ± 0.0071. Further, in series [2], the “normalized RNA/DNA level with ligand (log10)” value stood at 1.8 ± 0.11.
Turning to AACUAC, the “normalized RNA/DNA level without ligand (log10)” value in series [1] was found to be 1.7 ± 0.019. Also, the “normalized RNA/DNA level with ligand (log10)” value in series [2] was found to be 1.84 ± 0.12.
Take AACUAU: in series [1], the “normalized RNA/DNA level without ligand (log10)” value is 1.662 ± 0.014. In addition, the “normalized RNA/DNA level with ligand (log10)” value in series [2] stood at 1.79 ± 0.11.
On the same counts, the results for AACUAG are 1.616 ± 0.0088 and 1.78 ± 0.13.
The corresponding values for CAGCAC are 1.65 ± 0.067 and 1.79 ± 0.025.
With CAGCAG, the “normalized RNA/DNA level without ligand (log10)” value in series [1] came out at 1.79 ± 0.028. Also, the “normalized RNA/DNA level with ligand (log10)” value in series [2] was 1.85 ± 0.12.
For the variant CAGCAU, the “normalized RNA/DNA level without ligand (log10)” value in series [1] was 1.56 ± 0.1. Moreover, the “normalized RNA/DNA level with ligand (log10)” value in series [2] amounted to 1.72 ± 0.075.
For the variant AACUCU, the “normalized RNA/DNA level without ligand (log10)” value in series [1] came to 1.73 ± 0.06. Besides, the “normalized RNA/DNA level with ligand (log10)” value in series [2] came out at 1.88 ± 0.12.
Turning to AACUCA, the “normalized RNA/DNA level without ligand (log10)” value in series [1] was determined as 1.65 ± 0.035. Also, the “normalized RNA/DNA level with ligand (log10)” value in series [2] came out at 1.8 ± 0.088.
Consider AACUCG, for which the “normalized RNA/DNA level without ligand (log10)” value in series [1] worked out at 1.66 ± 0.047. Further, in series [2], the “normalized RNA/DNA level with ligand (log10)” value worked out at 1.82 ± 0.085.
As to CACGGU, the “normalized RNA/DNA level without ligand (log10)” value in series [1] turned out to be 1.685 ± 0.015. The “normalized RNA/DNA level with ligand (log10)” value in series [2] was 1.84 ± 0.064.
As for CACGGG, the “normalized RNA/DNA level without ligand (log10)” value in series [1] was 1.63 ± 0.04. Also, the “normalized RNA/DNA level with ligand (log10)” value in series [2] turned out to be 1.8 ± 0.06.
The corresponding values for CACGGC are 1.747 ± 0.0044 and 1.89 ± 0.11.
In the case of UACGUU, the “normalized RNA/DNA level without ligand (log10)” value in series [1] came to 1.684 ± 0.0031. Moreover, the “normalized RNA/DNA level with ligand (log10)” value in series [2] worked out at 1.84 ± 0.093.
Turning to UACGUC, the “normalized RNA/DNA level without ligand (log10)” value in series [1] turned out to be 1.69 ± 0.06. Also, the “normalized RNA/DNA level with ligand (log10)” value in series [2] amounted to 1.81 ± 0.13.
For UACGUA, in series [1], the “normalized RNA/DNA level without ligand (log10)” value is 1.64 ± 0.018. For the same variant, the “normalized RNA/DNA level with ligand (log10)” value in series [2] is 1.8 ± 0.056.
Take UACUCA: the “normalized RNA/DNA level without ligand (log10)” value in series [1] is 1.77 ± 0.062. For the same variant, the “normalized RNA/DNA level with ligand (log10)” value in series [2] was determined as 1.89 ± 0.18.
Regarding UACUCU, the “normalized RNA/DNA level without ligand (log10)” value in series [1] came to 1.73 ± 0.053. The “normalized RNA/DNA level with ligand (log10)” value in series [2] stood at 1.84 ± 0.07.
Regarding UACUCG, the “normalized RNA/DNA level without ligand (log10)” value in series [1] was determined as 1.77 ± 0.06. Also, in series [2], the “normalized RNA/DNA level with ligand (log10)” value worked out at 1.88 ± 0.17.
With UACUCC, the “normalized RNA/DNA level without ligand (log10)” value in series [1] was 1.76 ± 0.035. Besides, the “normalized RNA/DNA level with ligand (log10)” value in series [2] is 1.9 ± 0.14.
As to UAGCGA, in series [1], the “normalized RNA/DNA level without ligand (log10)” value was determined as 1.61 ± 0.053. For the same variant, in series [2], the “normalized RNA/DNA level with ligand (log10)” value was 1.76 ± 0.095.
As for UAGCGG, in series [1], the “normalized RNA/DNA level without ligand (log10)” value came out at 1.8203 ± 0.00054. The “normalized RNA/DNA level with ligand (log10)” value in series [2] was 1.95 ± 0.067.
UAGCGU: in series [1], the “normalized RNA/DNA level without ligand (log10)” value is 1.59 ± 0.056. Also, the “normalized RNA/DNA level with ligand (log10)” value in series [2] was found to be 1.72 ± 0.1.
